From paper PMC2150914

Target: taxol-stabilized microtubules polymerized in Xenopus egg extract (Xenopus (endogenous in Xenopus egg extract))
Assay: co-sedimentation

X-p21-activated kinase (PAK)5, endogenous (natural protein)
percent bound: < 70%
